Test results: patent publication US20200024330A1

Columns and labels:
Test in all cases: cell-based or functional assay
[1] = target: HIV-1 Env of isolate 93IN905 (HIV-1)
[2] = target: HIV-1 Env of isolate 93MW959 (HIV-1)
[3] = target: HIV-1 Env of isolate 97ZA012 (HIV-1)
[4] = target: HIV-1 Env of isolate 98IN022 (HIV-1)
[5] = target: HIV-1 Env of isolate JRCSF (HIV-1) (UniProt P20871)
[6] = target: HIV-1 Env of isolate MGRM-Chronic-B-010 (HIV-1)
[7] = target: HIV-1 Env of isolate MGRM-Chronic-B-011 (HIV-1)
[8] = target: HIV-1 Env of isolate MGRM-Chronic-B-012 (HIV-1)
[9] = target: HIV-1 Env of isolate MGRM-Chronic-B-017 (HIV-1)
[10] = target: HIV-1 Env of isolate MGRM-Chronic-B-018 (HIV-1)
[11] = target: HIV-1 Env of isolate MGRM-Chronic-B-020 (HIV-1)
[12] = target: HIV-1 Env of isolate MGRM-Chronic-B-023 (HIV-1)
[13] = target: HIV-1 Env of isolate MGRM-Chronic-B-024 (HIV-1)
[14] = target: HIV-1 Env of isolate MGRM-D-011 (HIV-1)
[15] = target: HIV-1 Env of isolate MGRM-D-012 (HIV-1)
[16] = target: HIV-1 Env of isolate MGRM-D-013 (HIV-1)
[17] = target: HIV-1 Env of isolate MGRM-D-014 (HIV-1)
[18] = target: HIV-1 Env of isolate MGRM-D-016 (HIV-1)
[19] = target: HIV-1 Env of isolate MGRM-D-018 (HIV-1)
[20] = target: HIV-1 Env of isolate MGRM-D-019 (HIV-1)
[21] = target: HIV-1 Env of isolate MGRM-D-020 (HIV-1)
[22] = target: HIV-1 Env of isolate MGRM-D-021 (HIV-1)
[23] = target: HIV-1 Env of isolate MGRM-D-022 (HIV-1)
[24] = target: HIV-1 Env of isolate MGRM-D-024 (HIV-1)
[25] = target: HIV-1 Env of isolate MGRM-D-026 (HIV-1)
[26] = target: HIV-1 Env of isolate MGRM-D-028 (HIV-1)
[27] = target: HIV-1 Env of isolate MGRM-D-029 (HIV-1)
[28] = target: HIV-1 Env of isolate MGRM-F1-004 (HIV-1)
[29] = target: HIV-1 Env of isolate MGRM-F1-006 (HIV-1)
[30] = target: HIV-1 Env of isolate MGRM-F1-008 (HIV-1)
[31] = target: HIV-1 Env of isolate MGRM-F1-010 (HIV-1)
[32] = target: HIV-1 Env of isolate MGRM-F1-012 (HIV-1)
[33] = target: HIV-1 Env of isolate MGRM-F1-013 (HIV-1)
[34] = target: HIV-1 Env of isolate MGRM-F1-014 (HIV-1)
[35] = target: HIV-1 Env of isolate MGRM-F1-015 (HIV-1)
[36] = target: HIV-1 Env of isolate MGRM-F1-016 (HIV-1)
[37] = target: HIV-1 Env of isolate MGRM-F1-017 (HIV-1)
[38] = target: HIV-1 Env of isolate MGRM-F1-018 (HIV-1)
[39] = target: HIV-1 Env of isolate MGRM-F1-020 (HIV-1)
[40] = target: HIV-1 Env of isolate MGRM-F1-021 (HIV-1)
[41] = target: HIV-1 Env of isolate MGRM-F1-022 (HIV-1)
[42] = target: HIV-1 Env of isolate MGRM-F1-023 (HIV-1)
[43] = target: HIV-1 Env of isolate NL43 (HIV-1)
[44] = target: HIV-1 Env of isolate PVO.4 (HIV-1)
[45] = target: HIV-1 Env of isolate QH0692.42 (HIV-1)
[46] = target: HIV-1 Env of isolate SC422661.8 (HIV-1)
[47] = target: HIV-1 Env of isolate SF162 (HIV-1) (UniProt P19550)
[48] = target: HIV-1 Env of isolate THR0.18 (HIV-1)
[49] = target: HIV-1 Env of isolate TRJ04551.58 (HIV-1)
[50] = target: HIV-1 Env of isolate TRO.11 (HIV-1)
[51] = target: HIV-1 Env of isolate VLGCB3 (HIV-1)

Chain of PGT-144 (antibody) (VH): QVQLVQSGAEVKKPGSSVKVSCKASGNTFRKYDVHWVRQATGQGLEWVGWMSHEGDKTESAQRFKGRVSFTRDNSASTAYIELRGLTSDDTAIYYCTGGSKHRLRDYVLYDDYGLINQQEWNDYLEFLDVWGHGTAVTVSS
Chain of PGT-144 (antibody) (VL): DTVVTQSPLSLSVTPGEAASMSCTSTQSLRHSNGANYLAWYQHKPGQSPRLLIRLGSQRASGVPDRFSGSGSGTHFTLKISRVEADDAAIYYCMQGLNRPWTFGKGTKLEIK

PGT-144 (antibody)
neutralization IC50 [1]: 0.132 µg/mL
neutralization IC50 [2]: 0.332 µg/mL
neutralization IC50 [3]: > 50 µg/mL
neutralization IC50 [4]: 0.171 µg/mL
neutralization IC50 [5]: 0.149 µg/mL
neutralization IC50 [6]: > 50 µg/mL
neutralization IC50 [7]: 5.64 µg/mL
neutralization IC50 [8]: > 50 µg/mL
neutralization IC50 [9]: 0.712 µg/mL
neutralization IC50 [10]: 2.4 µg/mL
neutralization IC50 [11]: > 50 µg/mL
neutralization IC50 [12]: > 50 µg/mL
neutralization IC50 [13]: 0.04 µg/mL
IC50, pseudovirus neutralization [14]: > 50 µg/mL
IC50, pseudovirus neutralization [15]: > 50 µg/mL
IC50, pseudovirus neutralization [16]: > 50 µg/mL
IC50, pseudovirus neutralization [17]: 0.113 µg/mL
IC50, pseudovirus neutralization [18]: > 50 µg/mL
IC50, pseudovirus neutralization [19]: > 50 µg/mL
IC50, pseudovirus neutralization [20]: > 50 µg/mL
IC50, pseudovirus neutralization [21]: > 50 µg/mL
IC50, pseudovirus neutralization [22]: > 50 µg/mL
IC50, pseudovirus neutralization [23]: > 50 µg/mL
IC50, pseudovirus neutralization [24]: > 50 µg/mL
IC50, pseudovirus neutralization [25]: > 50 µg/mL
IC50, pseudovirus neutralization [26]: > 50 µg/mL
IC50, pseudovirus neutralization [27]: 0.459 µg/mL
IC50, pseudovirus neutralization [28]: 0.105 µg/mL
IC50, pseudovirus neutralization [29]: 20.6 µg/mL
IC50, pseudovirus neutralization [30]: 0.507 µg/mL
IC50, pseudovirus neutralization [31]: > 50 µg/mL
IC50, pseudovirus neutralization [32]: > 50 µg/mL
IC50, pseudovirus neutralization [33]: 0.509 µg/mL
IC50, pseudovirus neutralization [34]: 0.014 µg/mL
IC50, pseudovirus neutralization [35]: > 50 µg/mL
IC50, pseudovirus neutralization [36]: > 50 µg/mL
IC50, pseudovirus neutralization [37]: > 50 µg/mL
IC50, pseudovirus neutralization [38]: > 50 µg/mL
IC50, pseudovirus neutralization [39]: 8.93 µg/mL
IC50, pseudovirus neutralization [40]: > 50 µg/mL
IC50, pseudovirus neutralization [41]: 0.382 µg/mL
IC50, pseudovirus neutralization [42]: 1.16 µg/mL
neutralization IC50 [43]: > 50 µg/mL
neutralization IC50 [44]: 0.535 µg/mL
neutralization IC50 [45]: > 50 µg/mL
neutralization IC50 [46]: > 50 µg/mL
neutralization IC50 [47]: > 50 µg/mL
neutralization IC50 [48]: 0.029 µg/mL
neutralization IC50 [49]: > 50 µg/mL
neutralization IC50 [50]: 4.73 µg/mL
neutralization IC50 [51]: > 50 µg/mL
